From US20230270894A1 (Regeneron, published 2023)

B1: 89Zr-DFO-mAb1 (anti-LAG3 antibody H4sH15482P conjugated with p-SCN-Bn-DFO and radiolabeled with 89Zr) (antibody, V domains shown)
VH: QVQLVESGGGVVQPGRSLRLSCVASGFTFSSYGMHWVRQAPGKGLEWVAIIWYDGSNKYYADSVKGRFTISRDNSKNTQYLQMNSLRAEDTAVYYCASVATSGDFDYYGMDVWGQGTTVTVSS
VL: EIVLTQSPATLSLSPGERTTLSCRASQRISTYLAWYQQKPGQAPRLLIYDASKRATGIPARFSGSGSGTGFTLTISSLEPEDFAVYYCQQRSNWPLTFGGGTKVEIK

What was measured:
[1] = biological target: human LAG3 (lymphocyte activation gene-3 protein, CD223), expressed on cells (human) (UniProt P18627); experiment: cell-based or functional assay
[2] = biological target: T1, human LAG3 (lymphocyte activation gene-3 protein, CD223), expressed on cells (human, UniProt P18627 23-525); experiment: cell-based or functional assay
T1 sequence: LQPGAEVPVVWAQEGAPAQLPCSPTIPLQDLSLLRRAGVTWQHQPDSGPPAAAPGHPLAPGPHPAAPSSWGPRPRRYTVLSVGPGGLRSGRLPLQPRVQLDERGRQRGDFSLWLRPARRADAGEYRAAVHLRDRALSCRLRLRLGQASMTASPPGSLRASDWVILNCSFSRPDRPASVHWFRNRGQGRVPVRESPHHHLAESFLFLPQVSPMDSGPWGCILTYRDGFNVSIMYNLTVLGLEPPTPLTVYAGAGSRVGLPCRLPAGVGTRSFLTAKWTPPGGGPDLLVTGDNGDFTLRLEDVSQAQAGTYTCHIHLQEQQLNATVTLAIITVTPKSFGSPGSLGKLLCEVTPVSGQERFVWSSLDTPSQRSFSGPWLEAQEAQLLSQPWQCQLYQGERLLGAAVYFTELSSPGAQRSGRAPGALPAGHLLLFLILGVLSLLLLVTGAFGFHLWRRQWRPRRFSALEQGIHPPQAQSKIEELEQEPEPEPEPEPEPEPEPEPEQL

Molecule | ex vivo biodistribution, tumor uptake (AVERAGE % ID/G) in MC38/ova/LAG3 tumors of NCr nude mice, 6 days post-dosing [1] [% ID/g] | Tumor-to-blood ratio (average), Raji/hPBMC tumors, day 6, protein dose 0.03 mg/kg [2] [ratio] | Tumor-to-blood ratio (average), Raji/hPBMC tumors, day 6, protein dose 0.1 mg/kg [2] [ratio] | Tumor-to-blood ratio (average), Raji/hPBMC tumors, day 6, protein dose 0.3 mg/kg [2] [ratio] | Tumor-to-blood ratio (average), Raji/hPBMC tumors, day 6, protein dose 5 mg/kg [2] [ratio]
89Zr-DFO-conjugated isotype control antibody | 7.8 | – | – | – | –
B1 | – | 9.71 | 5.44 | 3.46 | 1.1
